Laboratory results from patent US20100099627A1 (YEDA RESEARCH AND DEVELOPMENT, published 2010).
Where a chain is given by its changes, count along the chain named.

T1: APA-GFP-ERK2, P63086
T1 chain: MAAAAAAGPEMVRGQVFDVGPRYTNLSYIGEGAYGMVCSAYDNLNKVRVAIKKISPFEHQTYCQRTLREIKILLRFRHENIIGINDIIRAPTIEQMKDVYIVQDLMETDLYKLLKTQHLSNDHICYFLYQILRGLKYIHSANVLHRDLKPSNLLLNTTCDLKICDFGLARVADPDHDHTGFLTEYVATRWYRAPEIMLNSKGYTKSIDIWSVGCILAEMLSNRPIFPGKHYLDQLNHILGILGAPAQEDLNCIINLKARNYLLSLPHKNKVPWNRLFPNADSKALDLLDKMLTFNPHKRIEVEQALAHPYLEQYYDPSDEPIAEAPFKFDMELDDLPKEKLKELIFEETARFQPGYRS

T2: TEY-AAA-ERK2, P63086
T2 chain: T1 chain with T183A, E184A, Y185A, A244S, A246S

T3: WT-GFP-ERK2, P63086
T3 chain: T1 chain with A244S, A246S

B1: active GST-ERK2 (protein)
chain: T1 chain with A244S, A246S
B2: WT-GFP-ERK2 (enzyme, UniProt P63086 1-358, looked up)
chain: T1 chain with A244S, A246S
modifications: SPS domain (Ser244, Ser246) and TEY motif phosphorylated upon stimulation of the cells (EGF, TPA, VOOH); the state depends on the cell treatment named in each row
notes: Overexpressed in HeLa or COS7 cells and immunoprecipitated with anti GFP Ab; also called WT-ERK2; WT-ERK; not shown: GFP encoded by pEGFP C1 (Clontech)
B3: APA-GFP-ERK2 (enzyme, UniProt P63086 1-358, looked up)
chain: T1 chain
notes: also called GFP-ERK244/6A; ERK-AA; not shown: GFP encoded by pEGFP C1 (Clontech)
B4: EPE-GFP-ERK2 (enzyme, UniProt P63086 1-358, looked up)
chain: T1 chain with A244E, A246E
notes: also called GFP-ERK244/6E; ERK-EE; not shown: GFP encoded by pEGFP C1 (Clontech)

What was measured:
APA-GFP-ERK2, P63086 = biological target: T1, APA-GFP-ERK2, P63086
TEY-AAA-ERK2, P63086 = biological target: T2, TEY-AAA-ERK2, P63086
WT-GFP-ERK2, P63086 = biological target: T3, WT-GFP-ERK2, P63086
importin-β = biological target: T4, importin-β (UniProt Q14974 1-876); experiment: co-immunoprecipitation with anti GFP Ab from HeLa cells, Western blot with anti importin-β Ab
T4 construct: also called Impβ
Protocol: FIG. 9A. […] The extracts of the treated cells were then subjected to coimmunoprecipitation using A/G beads pre-conjugated with anti GFP Ab and mild washes. […] The equal amount of immunoprecipitated ERKs was determined with anti GFP (αGFP; IP) Ab. FIG. 19B. […] HeLa cells overexpressing 2GFP, 2GFP-SPS, 2GFP-APA and 2GFP-EPE constructs were subjected to coimmunoprecipitation as described in FIG. 19A (without EGF stimulation). FIG. 19C. […] This was followed by mild washing, and the beads were then subjected to Western blot analysis using anti His (αHis) and anti αGFP Abs.

Row | Binder | ^32P incorporation, in vitro kinase assay (reduction against GFP-ERK2) (APA-GFP-ERK2, P63086) | ^32P incorporation, in vitro kinase assay (reduction against GFP-ERK2) (TEY-AAA-ERK2, P63086) | ^32P incorporation, in vitro kinase assay (WT-GFP-ERK2, P63086) | binding result (importin-β)
1 | B1 | that of SPS-APA was reduced by ˜80% | The phosphorylation of TEY-AAA was reduced by ˜25% | ^32P incorporation to GFP-ERK2 was detected mainly when this protein was incubated with Act-ERK2 | –
2 | B2 | – | – | – | no binding
3 | B3 | – | – | – | no binding
4 | B4 | – | – | – | no binding
